Measured values: the RNAGym collection of RNA variant scans (doi:10.7554/elife.90254)

B1: LINE1-full (parent)
chain: UACGUAGGUGGUUUUCCCCUGAUAGUGCUAAGGGGGCCUGGAAGUUUGGACUGGGCAGAGCUCAACACAGCGUGGCAAAGUGGCUGUGGCUAGACUGCCUCUCUGGAUUCCUCGUCACUCAGCAGGGCAUCUCUGAGAGAAAUGCC

Variants of: B1
Test: self-cleavage, relative activity (ratio to wild type); higher = more cleavage; in vitro, sequencing; the parent is a self-cleaving ribozyme

In order of rising self-cleavage:
1. A107G U115G  0
2. A107C U130C  0
3. U108G G122C  0
4. U104C U119G  0
5. U109C U134A  0.22
6. U102G A140G  0.39
7. U104A U109A  0.42
8. U104A A141C  0.47
9. U104A C113U  0.51
10. U108A A136G  0.53
11. U108C C146U  0.63
12. U104C U109A  0.65
13. U109C U119A  0.7
14. U102G  0.71
15. A107G A142U  0.74
16. G106U U134C  0.75
17. U109C A142G  0.77
18. U109C A124G  0.78
19. C110U A124G  0.82
20. G106U U112C  0.82
21. G106U A136U  0.83
22. A107G U119G  0.84
23. C103U U130C  0.84
24. U104A G106A  0.84
25. U102G U143A  0.84
26. U102C C131U  0.87
27. U104A C113A  0.91
28. U102A U112C  0.96
29. U102G G144U  0.97
30. U109C C113A  0.99
31. U102A C146U  0.99
32. U109C A121C  0.99
33. G106U A138G  0.99
34. U108A A129G  0.99
35. U108C U130G  1.02
36. U109G A124G  1.04
37. G106A U134C  1.08
38. C103A U143C  1.1
39. U104A A121U  1.11
40. U104A U109C  1.11
41. U104A U143C  1.13
42. U104A U115A  1.13
43. U102C A124U  1.14
44. G106A A141G  1.16
45. U109G C128U  1.17
46. A107G G114A  1.18
47. A107C A136U  1.2
48. A107U C146U  1.21
49. G106U A117G  1.22
50. U109C C123U  1.22
51. U108C U143G  1.23
52. C103U  1.23
53. U104C A117G  1.23
54. U108A A136U  1.24
55. C103G  1.25
56. U104C A140U  1.25
57. U102C A142U  1.26
58. U102A U130A  1.28
59. U109C C113U  1.28
60. U102C  1.29
61. G106U U130C  1.29
62. A107G U119C  1.31
63. U109C C111U  1.31
64. G106U U108C  1.32
65. A107U A117G  1.34
66. C110U G126A  1.34
67. U104A A138G  1.34
68. U102C U143A  1.36
69. U109A U119A  1.36
70. U109C C133U  1.37
71. C103A  1.38
72. C110U U119C  1.39
73. U104A A136G  1.39
74. A107G C113U  1.39
75. C110U U112A  1.4
76. U104C U112G  1.41
77. C110U A140G  1.41
78. A107G U108C  1.42
79. U104A U115C  1.42
80. U104A A141G  1.43
81. U102A U115A  1.43
82. C110A A140G  1.44
83. A107G C145U  1.45
84. U109C A142C  1.45
85. U108C C145A  1.47
86. G105U A136G  1.47
87. U102A G135A  1.47
88. G106A G127U  1.49
89. U109C A142U  1.49
90. U102C A138U  1.49
91. A107G U143A  1.51
92. U102C A129G  1.51
93. G106A U143C  1.51
94. U108C U109C  1.51
95. U102C U115A  1.51
96. U102C U104A  1.52
97. U102C A142G  1.53
98. U104C G122A  1.54
99. U108A A124G  1.55
100. A107U U115C  1.55
101. C110A U112C  1.56
102. G105A U108C  1.56
103. U108C A124C  1.57
104. A107U U109C  1.58
105. U109C A121G  1.58
106. U108G U115C  1.58
107. U109A C131A  1.59
108. U104C G126U  1.59
109. U104C G114A  1.59
110. U108C G135A  1.6
111. U104A A129C  1.61
112. U109A A124U  1.61
113. U109C U119C  1.61
114. U108C A117G  1.62
115. A107G A129G  1.63
116. U104C U132C  1.63
117. U104A C120U  1.65
118. U108C U130C  1.66
119. U102C G122A  1.66
120. U104C A140G  1.67
121. U104C A141G  1.69
122. U109C A138G  1.69
123. U102C G127A  1.7
124. C103U A140U  1.72
125. G105U U115A  1.72
126. A107C A136G  1.73
127. U104C A141C  1.73
128. U102C A142C  1.73
129. U108C A140G  1.74
130. U108C U143C  1.75
131. A107C U143A  1.79
132. U104C U112A  1.8
133. A107G A136U  1.82
134. U109A A121G  1.82
135. U109C G126A  1.83
136. U108C A136G  1.83
137. U108G A121U  1.86
138. A107U A129U  1.86
139. U102A U130C  1.89
140. A107U U134G  1.9
141. A107G U119A  1.91
142. U104C C116U  1.91
143. G105U U119C  1.92
144. A107U A136G  1.92
145. U102C C145U  1.93
146. A107G C113A  1.94
147. U104C U119C  1.96
148. A107U U109A  1.98
149. U102C U115C  2.02
150. A107C A117U  2.03
151. U102C A124C  2.04
152. U104C G144U  2.06
153. A107U U130C  2.08
154. U104C A129C  2.1
155. A107U A129G  2.12
156. A107U U119C  2.16
157. U104C U119A  2.16
158. A107C U119C  2.19
159. U102C U130A  2.21
160. U108C A117C  2.24
161. U104C C146U  2.3
162. A107C A129U  2.42
163. U108C U134G  2.43
164. U108C C145G  2.49
165. U108G U112C  2.58
166. U102C A117C  2.63
167. C110U A136C  2.76
